In patent US20220273711A1 (University of Washington, published 2022) one finds Kd data, which are given here for two molecules.

In assay [1] the target is T1, EGFR-iRFP (hsEGFR_ecd_tm-iRFP) (human (hs)).
T1 construct: Expressed on K562 cells by lentiviral transduction; also called EGFR-iRFP on K562 cells
The assay is described as follows: flow cytometry; Bim-DARPin pre-complexed with Bcl2-AF594, 3-fold dilutions from 300 nM to 0.4 nM, mixed K562 cells expressing Her2-eGFP, EGFR-iRFP, both or neither. The protocol: (§1) FIG. 16. DARPin binder affinity measured by flow cytometry. Anti-Her2 or anti-EGFR DARPins with N-terminal fusions to Bim were pre-complexed with Bcl2-AF594 and serially diluted 3-fold from 300 nM down to 0.4 nM. This dilution series was used to label a mixed population of K562 cells expressing Her2-eGFP, EGFR-iRFP, both, or neither for one hour at room temperature in a 50 μl incubation volume. The cells were then washed in PBS supplemented with 0.1% bovine serum albumin and analyzed on an LSRII flow cytometer.
On the technique in general: A flow cytometer gives signals particle by particle.

In assay [2] the target is T2, Her2-eGFP (hsHER2_ecd_tm-eGFP) (human (hs)).
T2 construct: Expressed on K562 cells by lentiviral transduction; also called Her2-eGFP on K562 cells
The assay is described as above. The protocol: as §1

For orientation: Kd means the constant that tells how readily two partners part at equilibrium. Higher therefore signals a looser complex.

T1 sequence (chain, as listed by the source limits assumed): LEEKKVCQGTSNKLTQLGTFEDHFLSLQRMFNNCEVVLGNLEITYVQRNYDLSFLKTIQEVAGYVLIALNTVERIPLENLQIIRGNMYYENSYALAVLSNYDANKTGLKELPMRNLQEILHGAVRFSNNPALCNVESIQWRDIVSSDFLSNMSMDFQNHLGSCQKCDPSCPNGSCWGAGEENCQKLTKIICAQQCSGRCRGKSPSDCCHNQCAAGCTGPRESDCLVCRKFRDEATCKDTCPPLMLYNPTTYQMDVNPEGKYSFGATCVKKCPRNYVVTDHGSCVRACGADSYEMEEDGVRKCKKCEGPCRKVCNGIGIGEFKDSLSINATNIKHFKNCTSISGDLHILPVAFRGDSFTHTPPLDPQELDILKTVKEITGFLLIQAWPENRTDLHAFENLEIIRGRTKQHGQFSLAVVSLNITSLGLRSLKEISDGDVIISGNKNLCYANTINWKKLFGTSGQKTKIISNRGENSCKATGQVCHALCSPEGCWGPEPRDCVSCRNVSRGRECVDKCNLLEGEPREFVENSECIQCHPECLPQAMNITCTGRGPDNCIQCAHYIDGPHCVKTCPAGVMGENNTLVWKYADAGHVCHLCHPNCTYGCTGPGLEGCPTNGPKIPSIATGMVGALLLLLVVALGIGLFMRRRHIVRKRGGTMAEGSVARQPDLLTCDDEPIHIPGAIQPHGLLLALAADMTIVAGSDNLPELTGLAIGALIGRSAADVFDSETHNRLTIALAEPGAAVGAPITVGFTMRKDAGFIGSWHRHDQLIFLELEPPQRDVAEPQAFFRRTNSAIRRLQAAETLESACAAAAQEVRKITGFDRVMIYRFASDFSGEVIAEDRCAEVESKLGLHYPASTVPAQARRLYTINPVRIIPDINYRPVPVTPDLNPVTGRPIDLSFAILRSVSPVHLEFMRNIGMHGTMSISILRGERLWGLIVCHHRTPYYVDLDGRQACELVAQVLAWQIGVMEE

B1: Bim_EGFR (EGFR DARPin tagged with N-terminal Bim peptide) (designed binder)
chain: MGSHHHHHHGSGSENLYFQGSTDEIWIAQELRRIGDEFNAYYASGSGDLGKKLLEAARAGQDDEVRILMANGADVNADDTWGWTPLHLAAYQGHLEIVEVLLKNGADVNAYDYIGWTPLHLAADGHLEIVEVLLKNGADVNASDYIGDTPLHLAAHNGHLEIVEVLLKHGADVNAQDKFGKTAFDISIDNGNEDLAEILQKLN
notes: also called anti-EGFR DARPin with N-terminal fusion to Bim; Bim-DARPin
Turning to B1, in assay [1], the Kd is roughly 10 nM.

B2: Bim_Her2 (Her2 DARPin tagged with N-terminal Bim peptide) (designed binder)
chain: MGSHHHHHHGSGSENLYFQGSTDEIWIAQELRRIGDEFNAYYASGSGDLGKKLLEAARAGQDDEVRILMANGADVNAKDEYGLTPLYLATAHGHLEIVEVLLKNGADVNAVDAIGFTPLHLAAFIGHLEIAEVLLKHGADVNAQDKFGKTAFDISIGNGNEDLAEILQKLN
notes: also called Anti-Her2 DARPin with N-terminal fusion to Bim; Bim-DARPin
B2 showed a Kd in assay [2] of roughly 10 nM.
